“Also recorded” adds a separate entry of the source.
B1: Wnt3a: unrelated canonical Wnt protein (R&D Systems) used as comparison (protein, UniProt P56704 19-352, looked up)
Protein Wnt-3a: SYPIWWSLAVGPQYSSLGSQPILCASIPGLVPKQLRFCRNYVEIMPSVAEGIKIGIQECQHQFRGRRWNCTTVHDSLAIFGPVLDKATRESAFVHAIASAGVAFAVTRSCAEGTAAICGCSSRHQGSPGKGWKWGGCSEDIEFGGMVSREFADARENRPDARSAMNRHNNEAGRQAIASHMHLKCKCHGLSGSCEVKTCWWSQPDFRAIGDFLKDKYDSASEMVVEKHRESRGWVETLRPRYTYFKVPTERDLVYYEASPNFCEPNPETGSFGTRDRTCNVSSHGIDGCDLLCCGRGHNARAERRREKCRCVFHWCCYVSCQECTRVYDVHTCK
B2: Wnt5a: Wnt protein (R&D Systems) used as comparison in myoblast transplantation (protein, UniProt P41221 62-380, looked up)
Protein Wnt-5a: IIGAQPLCSQLAGLSQGQKKLCHLYQDHMQYIGEGAKTGIKECQYQFRHRRWNCSTVDNTSVFGRVMQIGSRETAFTYAVSAAGVVNAMSRACREGELSTCGCSRAARPKDLPRDWLWGGCGDNIDYGYRFAKEFVDARERERIHAKGSYESARILMNLHNNEAGRRTVYNLADVACKCHGVSGSCSLKTCWLQLADFRKVGDALKEKYDSAAAMRLNSRGKLVQVNSRFNSPTTQDLVYIDPSPDYCVRNESTGSLGTQGRLCNKTSEGMDGCELMCCGRGYDQFKTVQTERCHCKFHWCCYVKCKKCTEIVDQFVCK

Legend:
mouse primary myoblasts = test: Scratch migration assay, mouse primary myoblasts; format: cell-based
Procedure: Cellular polarization is indicative of increased motility (de Forges et al., 2012). Scratch assays were used to test whether Wnt7a and Fzd7 polarization affect cell motility. To exclude effects on the localization of cells arising from altered rates of proliferation, cells were treated with Mitomycin-C.
Fzd7 deficient cells migrated 59% less compared to heterozygous myoblasts and expression of Fzd7-Flag in Fzd7 knockout myoblasts restored migration to normal levels (FIG. 2D). […] To investigate whether the stimulation of myoblast migration is dose dependent, different concentrations of Wnt7a and Wnt3a were tested for their effect on migration.
Following plasmid transfection or application of Wnts (R&D Systems), the cells were treated with Mitomycin-C for 2 h (50 μg/mL). Subsequently, the monolayer of cells was scraped in a straight line. The plates were then extensively washed with culture medium and incubated for 24 h before analysis. Analysis was performed using DAPI staining after matching the reference points and enumeration of DAPI-stained nuclei in the scar was performed. Unless otherwise indicated, Wnt7a and Wnt3a were used at a concentration of 100 ng/mL in scratch assays. Monodansylcadaverine (MDC, 30432, Sigma) was used in scratch assays at a concentration of 50 μm.

β-catenin signaling = test: TOP-flash luciferase reporter assay in C2C12 cells; format: cell-based; details: different concentrations
Procedure: Different concentrations of Wnt7a were tested to exclude a dose dependent effect on β-catenin signaling, as measured by induction of TOP-flash activity in C2C12 cells.
The UBC-Fzd7-Flag (Fzd7-Flag), CMV-Fzd7-EYFP (Fzd7-YFP), CMV-Fzd3-EYFP (Fzd3-YFP), CMV-EYFP (YFP), CMV-EGFP-Rac1-wt (GFP-Rac1, 12980, Addgene), CMV-EGFP-Rac1-T17N (Rac1-DN, 12982, Addgene), CMV-EGFP-RhoA-T19N (RhoA-DN, 12967, Addgene) and CMV-EGFP-Cdc42-T17N (Cdc42-DN, 12976, Addgene) constructs have been described previously (Bentzinger et al., 2013a; Subauste et al., 2000; von Maltzahn et al., 2011). The Fzd7-tdtomato plasmid was generated by replacing the C-terminal YFP in Fzd7-YFP with tdTomato. For TOP-flash and FOP-flash the TCF reporter plasmid kit (17-285, Millipore) was used with the dual-luciferase reporter assay system (E1960, Promega). For normalization pGL4.74[hRluc/TK] (E6921, Promega) was cotransfected. For TOP-flash and FOP-flash assays the cells were transfected with GenJet lipofection reagent (SL100499, SignaGen). Otherwise, Lipofectamine 2000 (11668019, Life Technologies) was used for transfections.

primary myoblasts = test: Proliferation of primary myoblasts over five days; format: cell-based; details: 3 h exposure; various concentrations; over 5 days
Procedure: The proliferation of primary myoblasts following a 3 h exposure to various concentrations of Wnt7a was analyzed to control for the effect being due to changes in the cell cycle status of the transplanted cells.

mdx mice = test: Transplantation of Wnt-treated mouse primary myoblasts into mdx mice; format: in vivo; details: treated zsGreen+ myoblasts; three weeks following transplantation; compared to Veh.
Procedure: In a clinical setting, freshly isolated satellite cells are often not readily available. Therefore, the effect of 3 h Wnt7a loading on cultured primary mouse myoblasts that were subsequently transplanted into injured muscles of immunosuppressed mdx mice (FIG. S5 A) was examined. After transplantation of 100,000 cells, the number of dystrophin-expressing myofibers was increased by 72% in muscles that were injected with Wnt7a treated myoblasts (FIG. 13B). […] In addition, the mean maximal cluster distance (dispersion) increased from 1.5 mm for Veh., to 2.0 mm for Wnt7a (FIG. 13D).
Transplantation of zsGreen-expressing satellite cells or myoblasts into mdx mice was performed as previously described (Bentzinger et al., 2013c). Before transplantation the cells were treated for 3 h with Wnt7a, Wnt5a, or Wnt3a (R&D Systems) at a concentration of 50 ng/mL for freshly isolated satellite cells or with 100 ng/mL for cultured cells. Myoblasts expressing tdTomato were transplanted into uninjured muscles of C57BL/6 mice that were implanted with an osmotic pump (Alzet) delivering FK506 (Sigma) at 2.5 mg/kg/day 3 days prior to the transplantations. In some experiments, the injection site was marked with blue fluorescent microspheres (2 μm, Life Technologies) that were added at a concentration of 1:100 (vol/vol) to the cell suspension. 10 μl of the cell-microsphere suspension was injected into the TA of each mouse using a Hamilton syringe.
Muscles frozen in liquid nitrogen were cut into 12 μm cross-sections. Cross-sections and cells were either fixed with ethanol (100%) or 2% PFA for 5 min, permeabilized with 0.1% Triton/0.1 M glycine/PBS for 10 min, blocked with 5% horse serum in PBS for several hours, and incubated with specific primary antibody in blocking buffer overnight at 4° C. Samples were subsequently washed with PBS and stained with appropriate fluorescently labeled secondary antibodies for 1 h at room temperature. After washing with PBS, samples were mounted with Permafluor (Fisher). Antibodies were as follows: chicken anti-GFP (Abcam, ab13970), mouse anti-Pax7 (DSHB), mouse anti-Dystrophin (7A10, DSHB), mouse anti-Rac1 (05-389, Millipore), mouse anti-Tubulin (Sigma, T9026), rabbit anti-Dvl2 (3224, Cell Signaling), rabbit anti-zsGreen (Clontech, 632474), rabbit anti-Laminin (Sigma, L9393), rabbit anti-HA (Millipore, 07-221).

Molecule | dose dependency of myoblast migration (mouse primary myoblasts; different concentrations tested, mouse primary myoblasts) | stimulation of cell migration (mouse primary myoblasts; primary mouse myoblasts, 100 ng/mL) | TOP-flash reporter activity (β-catenin signaling) | rate of proliferation of primary myoblasts (primary myoblasts) | mean maximal cluster distance (mdx mice) | number of dystrophin-expressing myofibers (mdx mice)
B1 | no significant effect at any concentration tested | does not affect cell migration; also recorded: did not stimulate cell migration | dose dependent increase; also recorded: dose dependent response | reduced the proliferation of primary myoblasts | no difference; also recorded: Neither the number of dystrophin-expressing myofibers (FIG. 13E) nor the mean maximal cluster distance (FIG. 13F) was changed | no difference; also recorded: Neither the number of dystrophin-expressing myofibers (FIG. 13E) nor the mean maximal cluster distance (FIG. 13F) was changed
B2 | – | – | – | – | no difference; also recorded: Neither the number of dystrophin-expressing myofibers (FIG. 13E) nor the mean maximal cluster distance (FIG. 13F) was changed | no difference; also recorded: Neither the number of dystrophin-expressing myofibers (FIG. 13E) nor the mean maximal cluster distance (FIG. 13F) was changed

Reference: patent US20170087188A1, “WNT INDUCED MOTILITY AND ENHANCED ENGRAFTMENT OF CELLS” (OTTAWA HOSPITAL RESEARCH INSTITUTE, priority 2014, published 2017)
